Results published in patent publication US20190330316A1 (published 2019).

Target: recombinant human tau (human, UniProt P10636 1-383)
Assay: SPR

Sequence of recombinant human tau (P10636 other isoform, or with tags, fused parts or gaps): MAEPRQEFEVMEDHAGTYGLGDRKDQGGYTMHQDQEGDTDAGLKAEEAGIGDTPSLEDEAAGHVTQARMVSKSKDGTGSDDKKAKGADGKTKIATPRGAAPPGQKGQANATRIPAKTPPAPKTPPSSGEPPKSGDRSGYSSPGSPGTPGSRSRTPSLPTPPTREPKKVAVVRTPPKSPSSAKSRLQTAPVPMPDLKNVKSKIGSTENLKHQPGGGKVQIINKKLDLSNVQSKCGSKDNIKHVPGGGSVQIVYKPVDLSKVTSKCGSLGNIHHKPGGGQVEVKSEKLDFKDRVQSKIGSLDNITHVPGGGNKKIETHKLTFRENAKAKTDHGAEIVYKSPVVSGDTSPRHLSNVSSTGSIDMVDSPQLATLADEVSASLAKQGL

Row | Binder | Kd
1 | hu16G7VHv2b/hu16G7VLv2 (antibody, V domains shown) VH: EVQLVQSGAEVVKPGASVKVSCKASGYTFTSSWIHWVRQRPGQGLEWIGEIYPNSGNTNYNEKFKGRVTLTRDISISTAYMELSRLTSDDTAVYYCARLGWLIPLDYWGQGTTVTVSS VL: DIVLTQSPSSLAVSVGERATISCKSSQSLLDGNDQKNYLAWYQQKPGQSPKLLIYWASTRESGVPDRFSGSGSGTDFTLTISSLQAEDVAVYYCQQFYDYPWTFGGGTKLEIKR | 0.303 nM
2 | hu16G7VHv7/hu16G7VLv2 (antibody, V domains shown) VH: EVQLVQPGAEVKKPGASVKVSCKASGYTFTSSWIHWVRQAPGQGLEWMGEIYPNSGNTNYNEKFKGRVTMTVDISISTAYMELSRLRSDDTAVYYCARLGWLIPLDYWGQGTTVTVSS VL: DIVLTQSPSSLAVSVGERATISCKSSQSLLDGNDQKNYLAWYQQKPGQSPKLLIYWASTRESGVPDRFSGSGSGTDFTLTISSLQAEDVAVYYCQQFYDYPWTFGGGTKLEIKR | 0.293 nM

These reach a lower Kd. Values come first.

Row | Kd | Binder
3 | 0.277 nM | hu16G7VHv2a/hu16G7VLv2 (antibody, V domains shown) VH: EVQLVQSGAEVVKPGASVKVSCKASGYTFTSSWIHWVRQRPGQGLEWIGEIYPNSGNTNYNEKFKGKATLTVDISISTAYMELSRLTSDDTAVYYCARLGWLIPLDYWGQGTTVTVSS VL: DIVLTQSPSSLAVSVGERATISCKSSQSLLDGNDQKNYLAWYQQKPGQSPKLLIYWASTRESGVPDRFSGSGSGTDFTLTISSLQAEDVAVYYCQQFYDYPWTFGGGTKLEIKR
4 | 0.187 nM | chimeric 16G7 antibody (antibody, V domains shown) VH: QVQLQQPGSVLVRPGASVKLSCKASGYTFTSSWIHWAKQRPGQGLEWIGEIYPNSGNTNYNEKFKGKATLTVDISSSTAYVDLTSLTSEDSAVYYCARLGWLIPLDYWGQGTTLIVSS VL: DIVLSQSPSSLAVSVGEKVTMSCKSSQSLLDGNDQKNYLAWYQQKPGQSPKLLMYWASTRESGVPDRFTGSGSGTDFTLTISSLKAEDLAVYYCQQFYDYPWTFGGGTKLEIKR
